The values below come from the RNAGym collection of RNA variant scans (doi:10.1073/pnas.2313332121).

B1: TPR 5TU (parent)
chain: GGAUCUUCUCGAUCUAACAAAAAAGACAAAUCUGCCACAAAGCUUGAGAGCAUCUUCGGAUGCAGAGGCGGCAGCCUUCGGUGGCGCGAUAGCGCCAACGUUCUCAACUAUGACACGCAAAACGCGUGCUCCGUUGAAUGGAGUUUAUCAUG

Fewer inactive variants are shown than the library holds. Some results are limits rather than exact numbers.

The variants in this series derive from B1. In words: polymerase ribozyme fitness, log enrichment relative to wild type (log ratio); higher = more active; in vitro selection for triplet polymerase activity. Summed up: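 Fitness is a logarithmic measure of how a genotype enriched relative to the wild type, with replicate averages weighted by inverse variance. The logarithm uses base 2, and enrichment came from Illumina sequencing of input and output libraries. Those libraries were PCR-built, transcribed mutants of each subunit of a heterodimeric triplet polymerase ribozyme, passed through one triplicate in vitro selection round that included frozen incubation at −7 °C, gel excision of extended constructs and streptavidin-bead capture. Genotypes were kept only if they had ≥10 input reads and ≥1 read per output.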
In the case of U4G A28G A91G C93U A115U G133A, the “polymerase ribozyme fitness (log ratio)” value was ≤ -4.2.

On to A3U U61G C95U, for which the “polymerase ribozyme fitness (log ratio)” value is -1.39.

In the case of U4G A19G A23G G59U A66U G141C, the “polymerase ribozyme fitness (log ratio)” value is ≤ -4.2.

With U4A C8A U56A A122G G141A, the “polymerase ribozyme fitness (log ratio)” value is -4.11.

Turning to U4G C8A U31A U55A C87U U101C G133C, the “polymerase ribozyme fitness (log ratio)” value was ≤ -4.2.

On to U4C C10G A28C A49C G86A C99G U104G, for which the “polymerase ribozyme fitness (log ratio)” value was ≤ -4.2.

With U4C A21U C57G A60G C85A A89C G94A, the “polymerase ribozyme fitness (log ratio)” value was -2.06.

Regarding U4A G11C A41U G50C G58A G59U U82C C87U G92U G140A, the “polymerase ribozyme fitness (log ratio)” value was ≤ -4.2.

Turning to U4C A16C A17C, the “polymerase ribozyme fitness (log ratio)” value is -0.602.

As to U4C G58U C75A A91U U104G U144A C149U, the “polymerase ribozyme fitness (log ratio)” value is ≤ -4.2.

In the case of A3U G83A C87U U111G, the “polymerase ribozyme fitness (log ratio)” value is ≤ -4.2.

As to A3U C87G A113C, the “polymerase ribozyme fitness (log ratio)” value is -4.19.

As to U4A C132G U139G, the “polymerase ribozyme fitness (log ratio)” value is -3.71.

In the case of U4A G48C C75A C99A U135C A150C, the “polymerase ribozyme fitness (log ratio)” value was ≤ -4.2.

In the case of U4G C38A A47C C85G, the “polymerase ribozyme fitness (log ratio)” value was -3.7.

For the variant U4A C36A G48C G86A, the “polymerase ribozyme fitness (log ratio)” value was ≤ -4.2.

For the variant U4C A17G C18A C57A G59A G68A C96A A107U A121U C123G, the “polymerase ribozyme fitness (log ratio)” value is ≤ -4.2.

As for U4A U53A U82A A91U A115G U148G, the “polymerase ribozyme fitness (log ratio)” value is ≤ -4.2.

For the variant U4C C27U G62C C85A A138U, the “polymerase ribozyme fitness (log ratio)” value is ≤ -4.2.

For the variant U4A U15G A91C C114U C125A, the “polymerase ribozyme fitness (log ratio)” value is ≤ -4.2.

With U4G A21U C32G C38G C93G U146A, the “polymerase ribozyme fitness (log ratio)” value is ≤ -4.2.

For the variant U4G G48U G84A C93A G133A G141C, the “polymerase ribozyme fitness (log ratio)” value was ≤ -4.2.

With A3U C35A C43A A52G G88A C108G, the “polymerase ribozyme fitness (log ratio)” value is ≤ -4.2.

For the variant U4G G11U A20U A28U U56A C85U C99U U151A, the “polymerase ribozyme fitness (log ratio)” value is ≤ -4.2.

For U4A A12U G80U G81U G92C, the “polymerase ribozyme fitness (log ratio)” value is -0.513.

In the case of U4G A24G U44A U56G G94A A138C, the “polymerase ribozyme fitness (log ratio)” value is ≤ -4.2.

For U4C A49C A52C C99A C132U G136U G140U, the “polymerase ribozyme fitness (log ratio)” value is ≤ -4.2.

In the case of A3U C93A, the “polymerase ribozyme fitness (log ratio)” value was -2.19.

A3U C93G: the “polymerase ribozyme fitness (log ratio)” value is -2.5.

For the variant A3U G58C, the “polymerase ribozyme fitness (log ratio)” value was -0.0781.

Take U4C A47U C85U C105A C116G G143A A147U: the “polymerase ribozyme fitness (log ratio)” value was ≤ -4.2.

Regarding U4A A21C G80A, the “polymerase ribozyme fitness (log ratio)” value was -0.338.

On to U4C A12G C14U A40G G50A G84U U145C, for which the “polymerase ribozyme fitness (log ratio)” value is ≤ -4.2.

Consider U4A U9C C27G U55A G70C C85A U127G A142U, for which the “polymerase ribozyme fitness (log ratio)” value was ≤ -4.2.

In the case of U4C C18G A52G C54U G70A A91C C93A G128U G133C U151C, the “polymerase ribozyme fitness (log ratio)” value was ≤ -4.2.

For U4C U6G U55A C93G C103G A150U, the “polymerase ribozyme fitness (log ratio)” value is ≤ -4.2.

In the case of U4C U33A A40U U82G C96G C108U C118U U139C U148A, the “polymerase ribozyme fitness (log ratio)” value was ≤ -4.2.

Regarding U4C A22U A26U A40C A52U G67A U90A C99A A150U, the “polymerase ribozyme fitness (log ratio)” value is ≤ -4.2.

For A3U G80U, the “polymerase ribozyme fitness (log ratio)” value was -0.722.

U4A C103A: the “polymerase ribozyme fitness (log ratio)” value is -2.38.

For U4G G50C A73G U102C, the “polymerase ribozyme fitness (log ratio)” value was ≤ -4.2.

As for U4A A12C U55A G84U, the “polymerase ribozyme fitness (log ratio)” value is -2.4.

Turning to U4G C54G C95G, the “polymerase ribozyme fitness (log ratio)” value was -3.63.

In the case of A3U C8U C96U, the “polymerase ribozyme fitness (log ratio)” value is -1.89.

With U4A C14G A40G, the “polymerase ribozyme fitness (log ratio)” value is -3.69.

Turning to U4G A19U C43U C87U A98G, the “polymerase ribozyme fitness (log ratio)” value is ≤ -4.2.

In the case of U4G A19C G58U C69U C96A, the “polymerase ribozyme fitness (log ratio)” value was -0.414.

Take U4C C5U A20C C87A A98C G133U U148G: the “polymerase ribozyme fitness (log ratio)” value is ≤ -4.2.

Turning to U4C A12G U31G G94C A121G, the “polymerase ribozyme fitness (log ratio)” value is -0.0351.

With A3U C54U, the “polymerase ribozyme fitness (log ratio)” value is -1.57.

In the case of U4A C76A G86C A122C, the “polymerase ribozyme fitness (log ratio)” value is -3.26.

Take A3U C36U C95U: the “polymerase ribozyme fitness (log ratio)” value is -3.09.

For U4C G74A, the “polymerase ribozyme fitness (log ratio)” value was -3.29.

As to A3U C85G C93G G136A A142C, the “polymerase ribozyme fitness (log ratio)” value was ≤ -4.2.

For the variant U4A C38U A40U G42U A73G U82C G94U A107G, the “polymerase ribozyme fitness (log ratio)” value was ≤ -4.2.

With U4A A17G C35A G59C U135A, the “polymerase ribozyme fitness (log ratio)” value was ≤ -4.2.

With U4G A21U U31A G84U A115C, the “polymerase ribozyme fitness (log ratio)” value is -3.65.

Consider A3U G11A C14G U53C C76G G117U, for which the “polymerase ribozyme fitness (log ratio)” value was ≤ -4.2.

Consider U4C C57A C95A C96U G141A, for which the “polymerase ribozyme fitness (log ratio)” value is -3.87.

Take U4A A37C U61A A66G G133U U144A: the “polymerase ribozyme fitness (log ratio)” value was ≤ -4.2.

Consider U4A G83C G94U U148G, for which the “polymerase ribozyme fitness (log ratio)” value was ≤ -4.2.

Consider A3U C14G A30U U55G C95U, for which the “polymerase ribozyme fitness (log ratio)” value was ≤ -4.2.

On to U4A C51G G84A A106U C118A, for which the “polymerase ribozyme fitness (log ratio)” value is ≤ -4.2.

As to U4G A49U C57U U82G A91U, the “polymerase ribozyme fitness (log ratio)” value is ≤ -4.2.

As to U4A A16U A113C A115U, the “polymerase ribozyme fitness (log ratio)” value is ≤ -4.2.

In the case of U4C, the “polymerase ribozyme fitness (log ratio)” value turned out to be 0.371.

As for U4A, the “polymerase ribozyme fitness (log ratio)” value was -0.014.

In the case of U4G, the “polymerase ribozyme fitness (log ratio)” value is -0.0773.

On to U4A A22U C63U G67A C75A G94A C96U, for which the “polymerase ribozyme fitness (log ratio)” value was ≤ -4.2.

A3U C32G A49U: the “polymerase ribozyme fitness (log ratio)” value was ≤ -4.2.

Consider U4G A12G A17G C93U G141C, for which the “polymerase ribozyme fitness (log ratio)” value is -3.94.

Take U4A A19U A24U C35A C57G A60C U101G: the “polymerase ribozyme fitness (log ratio)” value is ≤ -4.2.

A3U C35U C54A C85G: the “polymerase ribozyme fitness (log ratio)” value is ≤ -4.2.

In the case of A3U G83C, the “polymerase ribozyme fitness (log ratio)” value is -0.632.

Consider A3U G83A, for which the “polymerase ribozyme fitness (log ratio)” value is -1.47.

Regarding U4C A22C G48U C93G A122C, the “polymerase ribozyme fitness (log ratio)” value was -3.98.

With A3U C36U, the “polymerase ribozyme fitness (log ratio)” value was -2.21.

Consider A3U G46A A113U, for which the “polymerase ribozyme fitness (log ratio)” value is -3.1.

With A3U U31G A40U U53A C85U C95U, the “polymerase ribozyme fitness (log ratio)” value was -3.06.

In the case of U4G C14U A52U C63U C85U, the “polymerase ribozyme fitness (log ratio)” value is -4.13.

As to U4A U6A C36U C57G G68U C79G A91C, the “polymerase ribozyme fitness (log ratio)” value is ≤ -4.2.

For the variant U4G A20C C43U U55A G59U A60G C87A A121G G141C, the “polymerase ribozyme fitness (log ratio)” value is ≤ -4.2.

For the variant U4C G42A A49C G50C C51U C79G A91U A121G, the “polymerase ribozyme fitness (log ratio)” value was ≤ -4.2.

Take U4G G74A G84U U109A: the “polymerase ribozyme fitness (log ratio)” value is ≤ -4.2.
